Patent US9658208B2, “Methods and G proteins for screening and identifying ligands of G protein-coupled receptors” (Fred Hutchinson Cancer Research Center, priority 2011, dated 2017)
Residue numbers refer to the chain shown, from its start. Entries after “also recorded” stand apart in the source; their conditions may differ.

T1: M2 muscarinic acetylcholine receptor (M2AchR) (Rattus norvegicus, UniProt P10980)
T1 construct: expressed in transfected cells; host or cells: HEK-293
T1 sequence (P10980 1-466): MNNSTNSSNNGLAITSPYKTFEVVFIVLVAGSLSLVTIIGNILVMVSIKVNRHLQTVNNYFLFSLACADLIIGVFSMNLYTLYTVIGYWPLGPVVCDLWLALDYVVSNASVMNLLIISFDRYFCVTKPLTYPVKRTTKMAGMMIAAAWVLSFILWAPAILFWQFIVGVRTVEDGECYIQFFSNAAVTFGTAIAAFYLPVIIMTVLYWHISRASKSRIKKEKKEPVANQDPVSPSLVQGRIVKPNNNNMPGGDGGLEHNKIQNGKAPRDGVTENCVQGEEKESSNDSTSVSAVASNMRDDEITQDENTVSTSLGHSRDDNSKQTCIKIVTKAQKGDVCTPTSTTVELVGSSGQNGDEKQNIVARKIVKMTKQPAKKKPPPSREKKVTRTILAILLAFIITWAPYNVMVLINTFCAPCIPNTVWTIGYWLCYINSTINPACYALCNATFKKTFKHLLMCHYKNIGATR

T2: dopamine D4 receptor (Mus musculus, UniProt P51436)
T2 construct: expressed in transfected cells; host or cells: HEK-293
T2 sequence (P51436 1-387): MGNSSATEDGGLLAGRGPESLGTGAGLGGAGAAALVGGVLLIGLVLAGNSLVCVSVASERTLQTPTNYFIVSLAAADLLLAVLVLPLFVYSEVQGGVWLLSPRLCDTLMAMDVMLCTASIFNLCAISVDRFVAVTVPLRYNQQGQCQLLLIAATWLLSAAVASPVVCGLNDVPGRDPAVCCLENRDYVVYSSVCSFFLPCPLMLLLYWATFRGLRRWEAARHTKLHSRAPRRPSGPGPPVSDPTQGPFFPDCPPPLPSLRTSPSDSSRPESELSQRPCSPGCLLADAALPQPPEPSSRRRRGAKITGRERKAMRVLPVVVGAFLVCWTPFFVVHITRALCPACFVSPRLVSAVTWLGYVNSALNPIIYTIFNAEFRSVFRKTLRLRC

B1: Gαs-Gα15-13: Gαs-based chimeric G protein, final 13 C-terminal amino acids substituted with those of Gα15 (protein)
chain: MGCLGNSKTEDQRNEEKAQREANKKIEKQLQKDKQVYRATHRLLLLGAGESGKSTIVKQMRILHVNGFNGEGGEEDVPDYASNSDGEKATKVQDIKNNLKEAIETIVAAMSNLVPPVELANPENQFRVDYILSVMNVPNFDFPPEFYEHAKALWEDEGVRACYERSNEYQLIDCAQYFLDKIDVIKQADYVPSDQDLLRCRVLTSGIFETKFQVDKVNFHMFDVGGQRDERRKWIQCFNDVTAIIFVVASSSYNMVIREDNQTNRLQEALNLFKSIWNNRWLRTISVILFLNKQDLLAEKVLAGKSKIEDYFPEFARYTTPEDATPEPGEDPRVTRAKYFIRDEFLRISTASGDGRHYCYPHFTCAVDTENIRRVFNDCRDSVLARYLDEINLL
modifications: Chimeric protein
notes: Gαs-based chimeric G protein, final 13 C-terminal amino acids substituted with those of Gα15
B2: Gαs-Gαi-13: Gαs-based chimeric G protein, C-terminal 13 amino acids of Gαs substituted with those of Gαi (protein)
chain: MGCLGNSKTEDQRNEEKAQREANKKIEKQLQKDKQVYRATHRLLLLGAGESGKSTIVKQMRILHVNGFNGEGGEEDVPDYASNSDGEKATKVQDIKNNLKEAIETIVAAMSNLVPPVELANPENQFRVDYILSVMNVPNFDFPPEFYEHAKALWEDEGVRACYERSNEYQLIDCAQYFLDKIDVIKQADYVPSDQDLLRCRVLTSGIFETKFQVDKVNFHMFDVGGQRDERRKWIQCFNDVTAIIFVVASSSYNMVIREDNQTNRLQEALNLFKSIWNNRWLRTISVILFLNKQDLLAEKVLAGKSKIEDYFPEFARYTTPEDATPEPGEDPRVTRAKYFIRDEFLRISTASGDGRHYCYPHFTCAVDTENIRRVFNDCRDVIIKNNLKDCGLF
modifications: Chimeric protein
notes: Gαs-based chimeric G protein, C-terminal 13 amino acids of Gαs substituted with those of Gαi
B3: Gαs-Gαz-13: Gαs-based chimeric G protein, final 13 C-terminal amino acids substituted with those of Gαz (protein)
chain: B2 chain with K385Q, D390Y, C391I, F394C
modifications: Chimeric protein
notes: Gαs-based chimeric G protein, final 13 C-terminal amino acids substituted with those of Gαz
B4: Gαs-Gαo-13: Gαs-based chimeric G protein, final 13 C-terminal amino acids substituted with those of Gαo (protein)
chain: B2 chain with V382I, K385A, K389R, D390G, F394Y
modifications: Chimeric protein
notes: Gαs-based chimeric G protein, final 13 C-terminal amino acids substituted with those of Gαo

Assays:
Type in all cases: cell-based
[1] = target: T1, M2 muscarinic acetylcholine receptor (M2AchR); test: CRE-SEAP reporter gene assay, coupling of Gαs-based chimeric G proteins with M2AchR (transient); conditions: 10 uM acetylcholine; for increase in SEAP activity: HEK-293 cells cotransfected with chimera, M2AchR and CRE-SEAP
Procedure: The constructs encoding chimeric G proteins were made by substituting C-terminal amino acids of Gαs (SEQ ID NO: 1) with the corresponding C-terminal amino acid sequences of other Gα subunits. A first set of Gαs-based chimeric G proteins was prepared by designing constructs encoding seven Gαs-Gαi chimeras in which the C-terminal 5, 11, 13, 28, 65, 84, or 131 amino acids of Gαs were substituted with the corresponding C-terminal amino acids from the […]. Briefly, HEK-293 cells were cotransfected with chimera constructs together with the CRE-SEAP reporter gene construct and a cDNA encoding the M2 muscarinic acetylcholine receptor (M2AchR), a GPCR that couples to Gαo but not to Gαs and inhibits cAMP production. The transfected cells were cultured in the presence or absence of acetylcholine and then assayed for SEAP activity.
A series of chimeric constructs were prepared in which the final 13 C-terminal amino acids of the Gαs subunit were substituted with the final 13 C-terminal amino acids from Gαo, Gαz, Gαt, Gαq, or Gα15 subunits. Also tested were the Gαs-Gαi-13 and a chimera containing the last 5 C-terminal amino acids of Gαk (Gαs-Gαk-5 (SEQ ID NO: 2)). These chimeric constructs were tested for coupling with M2AchR. […] The Gαs-Gαo-13 (SEQ ID NO: […]) and Gαs-Gα15-13 (SEQ ID NO: 7) allowed approximately 2-fold increases in SEAP activity.
(§1) Chimeric G protein cloning: An insert containing rat Gαs cDNA was cut out using the restriction enzymes SaII and HinDIII, and ligated into pcDNA3.1(−) cut with XhoI and HinDIII. The chimeric G proteins with the desired C-terminal amino acid substitutions were prepared by PCR using Gαs as a template. More specifically, Gαs was PCR amplified between an internal EcoRI site and the stop codon, with a 3′ HinDIII placed immediately after the stop codon. A different 3′ oligonucleotide was used for each Gαs chimera and contained a 39 bp sequence that encoded the substituted amino acids at the C-terminus selected from the donor Gα subunit.
M2AchR GPCR cloning: Rat M2AchR receptor was cloned by PCR from cDNA templates (ATCC) and ligated into pcDNA 3.1(−) for expression in mammalian cells.
CRE-SEAP Reporter Gene Assay: 0.5×10^5 HEK-293 cells (ATCC) were seeded into each well of a 96 well plate 24 hours prior to transfection. cDNAs encoding M2AchR, SEAP reporters (Mercury Pathway Profiling System, BD Biosciences), and G protein chimeras were transfected into HEK-293 cells using lipofectamine reagent (Invitrogen) according to the manufacturer's protocols. […]
Following transfection, the cells were maintained for 48 hours in 200 ul serum free media containing 10 uM acetylcholine (Sigma). […] Fluorescence was then measured using a CytoFluor 4000 multi well plate reader (Applied Biosystems).

[2] = system: nine GPCRs that do not bind to Gαs (serotonin 1b, neuropeptide Y1, leukotriene B4, dopamine D4, GNRH, UDP, calcium-sensing, T1R2/T1R3); test: CRE-SEAP reporter gene assay, coupling of chimeric G proteins with a variety of GPCRs; conditions: HEK-293 cells, GPCR ligand 48 hours
Excerpt: (§2) The GPCRs examined were those that couple with Gαi/Gαo subunits (serotonin 1b, neuropeptide Y1, leukotriene B4, and dopamine D4), Gαq (GNRH, UDP, and calcium-sensing receptors), and the orphan mammalian sweet taste receptor complex (T1R2 and T1R3) with unknown coupling preference. The Gαs-based chimeric G proteins examined in this example were Gαs-Gαi-5, Gαs-Gαt-13 (SEQ ID NO: 3), Gαs-Gαo-13 (SEQ ID NO: 4), Gαs-Gαi-13 (SEQ ID NO: 5), Gαs-Gαz-6 (SEQ ID NO: 18), Gαs-Gα15-13 (SEQ ID NO: 7), Gαs-Gαk-5 (SEQ ID NO: 2), and Gαs-Gαq-13 (SEQ ID NO: 8). The chimeric G protein constructs were prepared as described herein. For the coupling assay, HEK-293 cells were cotransfected with each of the Gαs-based chimeric G protein constructs of interest together with the CRE-SEAP reporter gene construct and a cDNA encoding the GPCR to be tested. The transfected cells were cultured in the presence or absence of a GPCR ligand and then assayed for SEAP activity.
as §1, with “substitutions from the Gαi, Gαt, Gαo, Gαz, Gα15, Gαk, and Gαq” for “substitutions”
GPCR cloning: Mouse 5-HT1B, mouse dopamine D4, human GNRH, and human neuropeptide Y1 receptors were cloned by PCR from cDNA templates (ATCC) and ligated into pcDNA 3.1(−) (Invitrogen) for expression in mammalian cells. […]
(§3) Following transfection, the cells were maintained for 48 hours in 200 ul serum free media containing GPCR ligand. […] Fluorescence was then measured using a CytoFluor 4000 multi well plate reader (Applied Biosystems).

dopamine D4 receptor = target: T2, dopamine D4 receptor; test: CRE-SEAP reporter gene assay, coupling with dopamine D4; conditions: HEK-293 cells, 1 uM dopamine
Excerpt: as §2
Chimeric G protein cloning: An insert containing rat Gαs cDNA was cut out using the restriction enzymes SaII and HinDIII, and ligated into pcDNA3.1(−) cut with XhoI and HinDIII. […]
as §3

| Molecule | increase in SEAP activity [1] | GPCRs tested that coupled to the chimera [2] | ligand induced increases in SEAP activity mediated by M2AchR (in words) ([1]; HEK-293 cells) | coupling with dopamine D4 receptor (dopamine D4 receptor) |
| --- | --- | --- | --- | --- |
| B1 | approximately 2 fold |  |  |  |
| B2 |  | seven of the nine | Particularly effective; also recorded: highest responses |  |
| B3 | approximately 2 fold |  |  |  |
| B4 |  | seven of the nine |  | permitted a response |
